For test [1], the target named is T1, transmembrane hCD40 receptor expressed on the surface of CHO cells (CHO-CD40-GFP) (human, UniProt P25942 21-277).
T1 construct: CD40 (TNFR superfamily), human; expressed from a CD40 green fluorescent protein fusion construct (Origene #RG201977) on CHO cells; source: CHO cells, transfected (Lipofectamine 2000), G418-selected and sorted by GFP; on living cells
Briefly: single-molecule force spectroscopy (AFM, SMFS); hCD40L coupled by its His6-tag to the PEG-tris-NTA AFM tip; living CHO cells expressing hCD40; room temperature; HEPES buffer (137 mM NaCl, 2.7 mM KCl, 10 mM HEPES, pH 7.4) with 50 µM NiCl2; contact time and pulling speed varied; Bell-Evans and Markov binding models. The note with it: one partner purified.

For test [2], the target named is T1, transmembrane hCD40 receptor expressed …. Described as above. Particulars: one partner purified. This is another data set of the same source.

T1 sequence (P25942 21-277): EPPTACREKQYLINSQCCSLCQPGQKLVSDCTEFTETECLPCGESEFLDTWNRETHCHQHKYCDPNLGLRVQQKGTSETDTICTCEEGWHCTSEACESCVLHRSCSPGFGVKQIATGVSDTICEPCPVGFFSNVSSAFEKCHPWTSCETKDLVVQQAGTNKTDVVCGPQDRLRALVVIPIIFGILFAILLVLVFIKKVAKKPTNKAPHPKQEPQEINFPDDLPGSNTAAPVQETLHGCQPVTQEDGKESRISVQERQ

B1: Active trimeric human CD40 ligand (hCD40L/hCD154; residues 116G-261L) with N-terminal His6-tag (CDL-H5248) (ligand, UniProt P29965 116-261, looked up)
chain: GDQNPQIAAHVISEASSKTTSVLQWAEKGYYTMSNNLVTLENGKQLTVKRQGLYYIYAQVTFCSNREASSQAPFIASLCLKSPGRFERILLRAANTHSSAKPCGQQSIHLGGVFELQPGASVFVNVTDPSQVSHGTGFTSFGLLKL
notes: CD40 ligand (CD154), human, residues 116G-261L; Used for SMFS (coupled to the tip by its His6-tag through tris-NTA/Ni) and for HS-AFM; also called trimeric hCD40L; source: bought: AcroBiosystems, USA (CDL-H5248); not shown: His6, N-terminal, kept
Consider B1, for which the affinity in test [1], expressed as Kd, was 3.2 µM. In addition, in test [2], the Kd (in general, the constant that tells how readily two partners part at equilibrium) turned out to be 3.3 µM; the koff (usually the first-order rate constant of dissociation) turned out to be 0.35 s⁻¹; the kon (as a rule, a measure of how fast the partners come together) came out at 160000 M⁻¹ s⁻¹.

These data come from PMC12276331, “Nanomechanical binding mechanism of ligands drives agonistic activity” (Nature Communications, 2025).
